Paper PMC3095675 (Journal of molecular biology, 2011)

Columns and labels:
[1] = molecular target: Cp149.G123A.T114A (Hepatitis B virus) (UniProt P03147); test: AUC
[2] = molecular target: Cp149.R127A.G123A (Hepatitis B virus) (UniProt P03147); test: AUC
[3] = molecular target: Cp(−10)149d.C(−7)A.C61.C48A.C107A (Hepatitis B virus) (UniProt P03147); test: cross-linking
[4] = molecular target: Cp(−10)149d.C(−7)A.C61.C48A.C107A (Hepatitis B virus) (UniProt P03147); test: AUC
[5] = molecular target: Cp149.T114A (Hepatitis B virus) (UniProt P03147); test: AUC
[6] = molecular target: Cp149.R127A (Hepatitis B virus) (UniProt P03147); test: AUC
[7] = molecular target: Cp149.S141A (Hepatitis B virus) (UniProt P03147); test: AUC
[8] = molecular target: Cp149.G123A (Hepatitis B virus) (UniProt P03147); test: SEC
[9] = molecular target: Cp149.G123A (Hepatitis B virus) (UniProt P03147); test: AUC
[10] = molecular target: Cp(−10)149.5A (Hepatitis B virus) (UniProt P03147); test: cross-linking
[11] = molecular target: Cp149.Y132A.G123A.R127A (Hepatitis B virus) (UniProt P03147); test: AUC
[12] = molecular target: Cp(−10)149.G123A (Hepatitis B virus) (UniProt P03147); test: AUC
[13] = molecular target: Cp149.Y132A (Hepatitis B virus) (UniProt P03147); test: AUC
cross-linking = molecular target: the molecule itself; test: cross-linking
AUC = molecular target: the molecule itself; test: AUC

Question: How did the stoichiometry N [1] turn out when “Cp149.G123A.T114A (from UniProt P03147 1-149) (domain or fragment)” was run?
Answer: 2

Question: “Cp149.R127A.G123A (from UniProt P03147 1-149) (domain or fragment)” was tested. Which stoichiometry N [2] did it give?
Answer: 2

Question: For “Cp(−10)149d.C(−7)A.C61.C48A.C107A (from UniProt P03147 1-149) (natural protein)”, which stoichiometry N [3] is on record?
Answer: 2

Question: What about the stoichiometry N [4] of the same molecule?
Answer: 2

Question: Which stoichiometry N [5] does the source give for “Cp149.T114A (from UniProt P03147 1-149) (domain or fragment)” here?
Answer: 2

Question: How did the stoichiometry N [6] turn out when “Cp149.R127A (from UniProt P03147 1-149) (domain or fragment)” was run?
Answer: 2

Question: With “Cp149.S141A (from UniProt P03147 1-149) (domain or fragment)” as the molecule, how does the stoichiometry N [7] read?
Answer: 2

Question: What does the source list for “Cp149.G123A (from UniProt P03147 1-149) (domain or fragment)”?
Answer: stoichiometry N [8]: 2; stoichiometry N [9]: 2

Question: How did the stoichiometry N [10] turn out when “Cp(−10)149.5A (from UniProt P03147 1-149) (natural protein)” was run?
Answer: 2

Question: “Cp149.Y132A.G123A.R127A (from UniProt P03147 1-149) (domain or fragment)” was tested. Which stoichiometry N [11] did it give?
Answer: 2

Question: Which stoichiometry N [12] does the source give for “Cp(−10)149.G123A (from UniProt P03147 1-149) (natural protein)” here?
Answer: 2

Question: With “Cp149.Y132A (from UniProt P03147 1-149) (domain or fragment)” as the molecule, how does the stoichiometry N [13] read?
Answer: 2

B1: Cp149.4A (domain or fragment)
chain: MDIDPYKEFGATVELLSFLPSDFFPSVRDLLDTAAALYRDALESPEHASPHHTALRQAILCWGDLMTLATWVGTNLEDPASRDLVVSYVNTNVGLKFRQLLWFHISALTFGRETVLEYLVSFAVWIATPPAYRPPNAPILSTLPETTVV
Question: How did the “stoichiometry N” value (cross-linking) turn out when B1 was run?
Answer: 2

B2: Cp143 (domain or fragment)
chain: MDIDPYKEFGATVELLSFLPSDFFPSVRDLLDTAAALYRDALESPEHCSPHHTALRQAILCWGDLMTLATWVGTNLEDPASRDLVVSYVNTNVGLKFRQLLWFHISCLTFGRETVLEYLVSFGVWIRTPPAYRPPNAPILSTL
Question: How did the “stoichiometry N” value (AUC) turn out when B2 was run?
Answer: 2

B3: Cp141 (domain or fragment)
chain: MDIDPYKEFGATVELLSFLPSDFFPSVRDLLDTAAALYRDALESPEHCSPHHTALRQAILCWGDLMTLATWVGTNLEDPASRDLVVSYVNTNVGLKFRQLLWFHISCLTFGRETVLEYLVSFGVWIRTPPAYRPPNAPILS
Question: How did the “stoichiometry N” value (AUC) turn out when B3 was run?
Answer: 2
